{
  "source": "paper doi:10.1101/2021.01.28.428596",
  "target": "RIR1-GFP (ProRIR1:RIR1-GFP in the rir1-1 mutant) (Arabidopsis thaliana) (UniProt C0LGG9)",
  "sequence (C0LGG9 27-1035, change not shown)": "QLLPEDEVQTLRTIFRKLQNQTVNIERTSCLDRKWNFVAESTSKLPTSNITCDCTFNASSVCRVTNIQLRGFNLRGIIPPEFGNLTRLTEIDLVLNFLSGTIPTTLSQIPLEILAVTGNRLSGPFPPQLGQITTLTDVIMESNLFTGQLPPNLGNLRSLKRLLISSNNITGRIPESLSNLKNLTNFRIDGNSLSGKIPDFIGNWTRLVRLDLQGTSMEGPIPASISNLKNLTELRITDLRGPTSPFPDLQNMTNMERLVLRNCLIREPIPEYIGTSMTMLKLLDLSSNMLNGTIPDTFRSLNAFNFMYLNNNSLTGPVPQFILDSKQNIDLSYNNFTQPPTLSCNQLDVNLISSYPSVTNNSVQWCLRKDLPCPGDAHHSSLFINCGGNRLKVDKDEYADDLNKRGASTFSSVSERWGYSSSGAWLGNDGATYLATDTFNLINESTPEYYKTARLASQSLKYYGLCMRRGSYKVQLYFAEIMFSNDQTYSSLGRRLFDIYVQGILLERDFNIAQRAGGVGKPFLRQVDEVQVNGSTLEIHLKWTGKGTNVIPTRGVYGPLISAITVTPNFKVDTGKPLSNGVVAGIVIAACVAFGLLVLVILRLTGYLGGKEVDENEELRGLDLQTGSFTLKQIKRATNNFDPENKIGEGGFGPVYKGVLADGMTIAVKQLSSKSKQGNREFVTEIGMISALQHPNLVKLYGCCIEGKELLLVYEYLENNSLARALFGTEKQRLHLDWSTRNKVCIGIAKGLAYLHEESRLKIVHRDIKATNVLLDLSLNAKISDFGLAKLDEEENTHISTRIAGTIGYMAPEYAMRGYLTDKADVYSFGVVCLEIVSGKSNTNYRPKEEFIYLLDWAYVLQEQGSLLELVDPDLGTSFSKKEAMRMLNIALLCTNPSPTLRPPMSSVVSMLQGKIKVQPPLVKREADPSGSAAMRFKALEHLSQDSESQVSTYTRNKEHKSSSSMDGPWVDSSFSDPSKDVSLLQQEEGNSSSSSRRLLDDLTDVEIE",
  "assay": "FRET or BRET",
  "data": [
    {"substance": "mCherry-REM1.2 (ProREM1.2-mCherry-REM1.2 in rir1-1/RIR1-GFP#3) (from UniProt P0CAP4 1-446) (natural protein)", "values": [
      {"measurement": "GFP donor fluorescence lifetime with acceptor (τDA)", "result": 2.21, "unit": "ns"}
    ]}
  ]
}
